Biological target: gC1qR-ΔΔ, gC1qR deletion mutant that removed the flexible, negatively charged loops (UniProt Q07021)
Assay: SPR; gC1qR-WT or gC1qR-ΔΔ immobilised; two-fold dilution series of analyte injected; reference-corrected sensorgrams fit to kinetic models; apparent KD

gC1qR-ΔΔ, gC1qR deletion mutant that removed the flexible, negatively charged loops, sequence (Q07021 74-282, stated change not applied): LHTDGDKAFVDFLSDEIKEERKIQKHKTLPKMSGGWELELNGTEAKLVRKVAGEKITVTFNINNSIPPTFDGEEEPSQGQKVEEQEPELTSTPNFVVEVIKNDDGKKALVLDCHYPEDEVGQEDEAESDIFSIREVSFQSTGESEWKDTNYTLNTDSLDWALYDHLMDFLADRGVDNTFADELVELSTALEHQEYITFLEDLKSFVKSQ

SARS-CoV-2 Membrane-Envelope fusion protein, recombinant
Kd: 360 nM

Source: paper PMC8602850
